Data reported in patent US20250215071A1, “Novel Mcl-1 inhibitor and combination of Mcl-1 and a BH3 mimetic, such as a Bcl-2 inhibitor” (NETRIS PHARMA, priority 2022, published 2025).

Test system: EMT6 cells
Test: EMT6 syngeneic breast tumor model, tumor growth and survival
Type: in vivo, BALB/c mice
Conditions: NP137 20 mg/Kg loading then 10 mg/Kg i.v.; Venetoclax 5 mg/Kg oral gavage; vs isotypic control antibody
Experimental: FIG. 8. Combining netrin-1 interference and BH3 mimetics inhibits tumor growth in preclinical in vivo and ex vivo models. ((A,B,C): Combining netrin-1 interference and Bcl-2 inhibition restrains tumor growth in a syngeneic breast cancer model. EMT6 cells were engrafted in BALB/c mice and, once tumors reached a volume of 50 mm^3, treated with isotypic (Iso-mAb) or NP137 antibodies and the Bcl-2 inhibitor Venetoclax, as single agents or in combination. Tumor volumes were measured at the indicated days after the first treatment (n=9, ** p<0.01, ordinary two-way ANOVA with Tukey's multiple comparisons test) (A,B). Survival rate was assessed at sacrifice of mice with tumors more than 500 mm^3 (C). (D,E,F): Combined treatment is efficient to induce apoptosis in human ex vivo slices. Cleaved active caspase-3-positive cells were assessed by IHC staining in fresh ex vivo breast tumor tissue slices. […]
FIG. 9. […] 24 hours later, apoptosis was quantified by Annexin V/propidium iodide (PI) staining. EC50 values were calculated using nonlinear regression of Dose-response curves with GraphPad Prism software. […] Apoptosis was then evaluated by 5′,6,6′-tetrachloro-1,1′,3,3′-tetraethylbenzimi-dazolylcarbocyanine iodide (JC-1) dye staining, using NucleoCounter NC3000 (n=2, *p<0.05, ordinary two-way ANOVA with Tukey's multiple comparisons test). […]

B1: NP137: humanized anti-netrin-1 monoclonal antibody, VH SEQ ID NO: 22, VL SEQ ID NO: 16, human IgG1 (antibody, V domains shown)
VH: QVQLQQSGPGLVKPSQTLSLTCAISGYTFTSYNMHWVRQATGQGLEWMGAIYPGNGDTSYNQKFKGRLTISKDTSKNQVVLTMTNMDPVDTATYYCARGGTGFAYWGQG
VL: DIQMTQSPSSLSASVGDRVTITCKASQSVSNDVAWYQQKPGQAPRLLIYYASNRYTGIPPRFSGSGYGTDFTLTINNIESEDAAYYFCQQDYSSPWTFGQG
modifications: human IgG1 constant region; humanized variant; MISC_FEATURE - CDR according to IGMT
  tumor growth: no effect on tumor growth
